Drawing on the supplement of paper PMC10724198, this text covers protein stability index for ten sequences.

± gives the standard deviation of the averaged measurements.

Data set [1] relates to Saccharomyces cerevisiae. The experiment in a line: protein stability index of tFT-peptide fusion (C-terminal peptide) (PSI (0-1 scale)); higher = more stable (slower turnover). The method, then:
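MPS profiling in S. cerevisiae of the tFT-X12 degron library: putative degron peptides plus stable controls, 12 aa, fused to the C-terminus of a sfGFP-mCherry timer. Cells are FACS-sorted into 8 mCherry/sfGFP bins and deep-sequenced. PSI runs from 0 (unstable) to 1 (stable). Backgrounds are wild type, das1Δ and doa10Δ at 30 °C, and wild type, das1Δ, cdc34-1 and cdc53-1 at 37 °C; 2-3 technical replicates each.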

In data set [2] the test system is Saccharomyces cerevisiae. The data set is described as above. Particulars: genetic background: wild type; temperature: 30 C.
Where [3] appears, read: genetic background: cdc34-1, temperature: 37 C.
The mark [4] stands for this setting: genetic background: cdc53-1, temperature: 37 C.
Where [5] appears, read: genetic background: das1 deletion, temperature: 30 C.
Setting [6] is: genetic background: das1 deletion, temperature: 37 C.
Where [7] appears, read: genetic background: doa10 deletion, temperature: 30 C.
Setting [8] is: genetic background: wild type, temperature: 30 C.
[9] abbreviates: genetic background: wild type, temperature: 37 C.
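Further: PSI is a weighted mean of sequencing reads over stability bins, variants kept only with over 10 reads, mCherry proximal and sfGFP distal, peptide attached via GGGS linker.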

Turning to VCSCLVLVFCCC, the protein stability index in the data set with Saccharomyces cerevisiae [1] (setting [3]) is 0.232 ± 0.018; in the data set on Saccharomyces cerevisiae [1] (setting [4]) it was 0.222 ± 0.018; in the data set on Saccharomyces cerevisiae [1] (setting [5]), 0.232 ± 0.036; in the data set on Saccharomyces cerevisiae [1] (setting [6]), 0.318 ± 0.0068; in the data set on Saccharomyces cerevisiae [1] (setting [7]) it was 0.207 ± 0.025; with Saccharomyces cerevisiae [1] (setting [8]), 0.237 ± 0.015. The protein stability index came out at 0.285 ± 0.024 in the data set on Saccharomyces cerevisiae [1] (setting [9]) and 0.298 ± 0.037 with Saccharomyces cerevisiae [2].
On to VCVARICIWDFL, for which the protein stability index in the data set with Saccharomyces cerevisiae [1] (setting [3]) turned out to be 0.505 ± 0.043; in the data set on Saccharomyces cerevisiae [1] (setting [4]) it was 0.589 ± 0.027; with Saccharomyces cerevisiae [1] (setting [5]), 0.446 ± 0.035; in the data set with Saccharomyces cerevisiae [1] (setting [6]) it was 0.594 ± 0.014; with Saccharomyces cerevisiae [1] (setting [7]) it was 0.413 ± 0.0074; in the data set with Saccharomyces cerevisiae [1] (setting [8]), 0.438 ± 0.013. For the same sequence, the protein stability index worked out at 0.596 ± 0.0092 in the data set with Saccharomyces cerevisiae [1] (setting [9]) and 0.51 ± 0.033 in the data set with Saccharomyces cerevisiae [2].
For VCWVYESWKCLA, the protein stability index in the data set with Saccharomyces cerevisiae [1] (setting [3]) stood at 0.438 ± 0.038; in the data set with Saccharomyces cerevisiae [1] (setting [4]), 0.571 ± 0.043; in the data set on Saccharomyces cerevisiae [1] (setting [5]) it was 0.536 ± 0.027; with Saccharomyces cerevisiae [1] (setting [6]) it was 0.672 ± 0.0075; with Saccharomyces cerevisiae [1] (setting [7]), 0.0888 ± 0.014; with Saccharomyces cerevisiae [1] (setting [8]), 0.103 ± 0.0097. Also, the protein stability index with Saccharomyces cerevisiae [1] (setting [9]) worked out at 0.107 ± 0.013; with Saccharomyces cerevisiae [2], 0.168 ± 0.026.
Take VCYLMRSLTFAY: the protein stability index was 0.4968 ± 0.0039 with Saccharomyces cerevisiae [1] (setting [3]); 0.546 ± 0.006 in the data set with Saccharomyces cerevisiae [1] (setting [4]); 0.345 ± 0.029 in the data set on Saccharomyces cerevisiae [1] (setting [5]); 0.494 ± 0.0096 in the data set with Saccharomyces cerevisiae [1] (setting [6]); 0.319 ± 0.021 in the data set with Saccharomyces cerevisiae [1] (setting [7]); 0.337 ± 0.024 in the data set with Saccharomyces cerevisiae [1] (setting [8]). For the same sequence, the protein stability index was found to be 0.4733 ± 0.0016 with Saccharomyces cerevisiae [1] (setting [9]) and 0.45 ± 0.0099 in the data set on Saccharomyces cerevisiae [2].
With VECVCVVVVRRM, the protein stability index is 0.391 ± 0.0055 with Saccharomyces cerevisiae [1] (setting [3]); 0.497 ± 0.03 with Saccharomyces cerevisiae [1] (setting [4]); 0.313 ± 0.023 with Saccharomyces cerevisiae [1] (setting [5]); 0.493 ± 0.01 in the data set with Saccharomyces cerevisiae [1] (setting [6]); 0.266 ± 0.0088 in the data set with Saccharomyces cerevisiae [1] (setting [7]); 0.31 ± 0.021 with Saccharomyces cerevisiae [1] (setting [8]). The values for the protein stability index with Saccharomyces cerevisiae [1] (setting [9]) and with Saccharomyces cerevisiae [2] were 0.466 ± 0.021 and 0.351 ± 0.017, respectively.
For VFLCVRLGFIFL, the protein stability index with Saccharomyces cerevisiae [1] (setting [3]) came to 0.419 ± 0.0062; in the data set on Saccharomyces cerevisiae [1] (setting [4]) it was 0.486 ± 0.0065; with Saccharomyces cerevisiae [1] (setting [5]) it was 0.359 ± 0.029; in the data set on Saccharomyces cerevisiae [1] (setting [6]), 0.529 ± 0.012; with Saccharomyces cerevisiae [1] (setting [7]) it was 0.404 ± 0.02; in the data set with Saccharomyces cerevisiae [1] (setting [8]), 0.352 ± 0.023. The protein stability index was determined as 0.471 ± 0.023 with Saccharomyces cerevisiae [1] (setting [9]) and 0.446 ± 0.026 in the data set on Saccharomyces cerevisiae [2].
For the sequence VFLLCLGFLVFS, the protein stability index with Saccharomyces cerevisiae [1] (setting [3]) was found to be 0.263 ± 0.011; in the data set with Saccharomyces cerevisiae [1] (setting [4]), 0.341 ± 0.046; in the data set with Saccharomyces cerevisiae [1] (setting [5]), 0.258 ± 0.025; in the data set with Saccharomyces cerevisiae [1] (setting [6]), 0.4083 ± 0.0018; with Saccharomyces cerevisiae [1] (setting [7]) it was 0.241 ± 0.024; in the data set with Saccharomyces cerevisiae [1] (setting [8]) it was 0.275 ± 0.02. For the same sequence, the results for the protein stability index in the data set with Saccharomyces cerevisiae [1] (setting [9]) and in the data set with Saccharomyces cerevisiae [2] were 0.3886 ± 0.0038 and 0.336 ± 0.038, respectively.
Turning to VFLRRFGVPWVF, the protein stability index stood at 0.594 ± 0.016 with Saccharomyces cerevisiae [1] (setting [3]); 0.664 ± 0.019 in the data set on Saccharomyces cerevisiae [1] (setting [4]); 0.493 ± 0.029 in the data set on Saccharomyces cerevisiae [1] (setting [5]); 0.661 ± 0.016 in the data set on Saccharomyces cerevisiae [1] (setting [6]); 0.198 ± 0.0071 in the data set on Saccharomyces cerevisiae [1] (setting [7]); 0.227 ± 0.02 in the data set with Saccharomyces cerevisiae [1] (setting [8]). Besides, the protein stability index is 0.429 ± 0.0074 in the data set on Saccharomyces cerevisiae [1] (setting [9]) and 0.365 ± 0.017 with Saccharomyces cerevisiae [2].
On to VFLSCFFVSWVV, for which the protein stability index with Saccharomyces cerevisiae [1] (setting [3]) came to 0.328 ± 0.019; in the data set with Saccharomyces cerevisiae [1] (setting [4]) it was 0.403 ± 0.047; with Saccharomyces cerevisiae [1] (setting [5]), 0.226 ± 0.027; with Saccharomyces cerevisiae [1] (setting [6]), 0.40329 ± 5.2e-05; in the data set with Saccharomyces cerevisiae [1] (setting [7]) it was 0.202 ± 0.011; in the data set with Saccharomyces cerevisiae [1] (setting [8]) it was 0.204 ± 0.015. The protein stability index with Saccharomyces cerevisiae [1] (setting [9]) was found to be 0.369 ± 0.03; with Saccharomyces cerevisiae [2] it was 0.3269 ± 0.0017.
Take VFLYVYAVWFLV: the protein stability index in the data set with Saccharomyces cerevisiae [1] (setting [3]) came out at 0.156 ± 0.027; in the data set with Saccharomyces cerevisiae [1] (setting [4]), 0.228 ± 0.0084; in the data set on Saccharomyces cerevisiae [1] (setting [5]), 0.198 ± 0.042; in the data set on Saccharomyces cerevisiae [1] (setting [6]) it was 0.321 ± 0.0075; in the data set on Saccharomyces cerevisiae [1] (setting [7]), 0.1102 ± 0.00096; in the data set with Saccharomyces cerevisiae [1] (setting [8]) it was 0.119 ± 0.053. Further, the protein stability index in the data set with Saccharomyces cerevisiae [1] (setting [9]) came out at 0.118 ± 0.023; in the data set on Saccharomyces cerevisiae [2] it was 0.164 ± 0.025.
